Reference: the supplement of paper PMC9732359
± gives the uncertainty stated by the source.

Test: protein stability index of a GFP-peptide fusion (yeast GPS) (PSI 1-4); higher = more stable; sorted into four equal gates, so the index is relative within each strain
How it was run: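 Each library plasmid carries Cherry plus GFP with a tiled 17-residue yeast protein peptide fused downstream, and the pooled library was carried in yeast. Mid-log cultures in leucine-free medium were sorted into four equal gates by GFP/Cherry ratio. Reads from Illumina sequencing of PCR-amplified plasmids from each gate were assigned to strains by barcodes. Per peptide, the protein stability index was computed as the summed products of gate read frequency and gate number.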

Row | Sequence | protein stability index (doa10∆) | protein stability index (pdr5∆) | protein stability index (san1∆) | protein stability index (ubr1∆)
1 | FPTTSHESLVTTLLRKK [MED8] | 2.12 ± 0.12 | 1.82 ± 0.12 | 1.72 ± 0.14 | 1.95 ± 0.12
2 | DAFVATAFATEFFVQVL [DLS1] | 2.98 ± 0.089 | 3.03 ± 0.089 | 3.12 ± 0.077 | 3.09 ± 0.072
3 | PKNIEPPLTSQYSTRHD [SWI3] | 3.07 ± 0.048 | 3.02 ± 0.059 | 3.04 ± 0.041 | 3.03 ± 0.042
4 | MEDPPSTVSGELNDNPA [YMR153W/NUP53] | 2.45 ± 0.081 | 2.81 ± 0.054 | 2.84 ± 0.077 | 2.83 ± 0.051
5 | NSSESDEEESNDEKQKA [RPN13] | 3.32 ± 0.17 | 2.43 ± 0.21 | – | 3.41 ± 0.088
6 | MLSFCPSCNNMLLITSG [RPC11] | 1.26 ± 0.082 | 2.97 ± 0.13 | – | 2.83 ± 0.072
7 | ENIEPLDPINLPLDSQD [PRP8] | 2.87 ± 0.078 | 2.97 ± 0.089 | 2.49 ± 0.11 | 3.04 ± 0.067
8 | TTLKLSPSPILLTSAGC [NUT1] | 1.47 ± 0.043 | 1.42 ± 0.039 | 1.45 ± 0.09 | 1.51 ± 0.036
9 | THTEQNNPPKPQKPVPL [SNF2] | 2.88 ± 0.08 | 3.34 ± 0.094 | 3.12 ± 0.049 | 3.15 ± 0.057
10 | QIPVYDTFDGSDLRVLS [FAS1] | 2.7 ± 0.081 | 2.92 ± 0.059 | 2.53 ± 0.069 | 2.69 ± 0.058
11 | FSHLAGGKIINKLGNDP [BRR2] | 2.94 ± 0.19 | 3.1 ± 0.19 | 2.91 ± 0.085 | 3.02 ± 0.077
12 | VTAEDFKQAKERVMKNK [RPT2] | 3.69 ± 0.23 | 3.52 ± 0.12 | 3.52 ± 0.11 | 3.42 ± 0.11
13 | GTNPLSSDGAYTEQFQH [SSN2] | 3.23 ± 0.093 | 3.09 ± 0.075 | 2.96 ± 0.055 | 3.06 ± 0.062
14 | AELLNEWHSSLTLKEAE [PUP2] | – | 2.93 ± 0.14 | – | 3.02 ± 0.17
15 | NLLTPQPTNFTTKRLWS [MCD1] | 2.79 ± 0.074 | 2.79 ± 0.063 | 2.73 ± 0.064 | 2.85 ± 0.065
16 | SKALYPDYYMIIKYPVA [SNF2] | 2.37 ± 0.039 | 2.31 ± 0.038 | 2.02 ± 0.054 | 2.53 ± 0.031
17 | LQRASSKMGAPWCVKPE [ITC1] | 3.14 ± 0.089 | 3.29 ± 0.078 | 3.33 ± 0.055 | 3.27 ± 0.066
18 | DEYQAAVEQRKKEKLDS [DPB4] | 3.47 ± 0.13 | 3.34 ± 0.14 | 3.38 ± 0.11 | 3.39 ± 0.095
19 | SLDIRHDFIKGLIMLNL [NUT1] | 2.18 ± 0.064 | 1.56 ± 0.068 | 1.31 ± 0.13 | 1.72 ± 0.057
20 | SAKEIAKASGCDDESGD [MCD1] | 2.19 ± 0.094 | 1.8 ± 0.15 | 2.62 ± 0.12 | 2.86 ± 0.14
21 | RSILQSLNPALQEKIST [SWI1] | 2.45 ± 0.056 | 2.79 ± 0.069 | 2.72 ± 0.1 | 2.71 ± 0.073
22 | GVSRQIAASAFLSLLNL [REC8] | 1.5 ± 0.047 | 1.31 ± 0.045 | 1.17 ± 0.14 | 1.23 ± 0.038
23 | KNIAQCLSDYTKKISNF [YJL039C/NUP192] | 1.79 ± 0.055 | 2.22 ± 0.055 | 2.02 ± 0.068 | 1.49 ± 0.036
24 | EVGNRKHYLEDKLKVYK [SNF5] | 3.19 ± 0.1 | 3.19 ± 0.14 | 3.11 ± 0.12 | 3.06 ± 0.067
25 | ADVLSILAMTYSENGKH [RPN1] | 1.64 ± 0.066 | 1.9 ± 0.1 | 1.45 ± 0.11 | 1.36 ± 0.052
26 | IVALSSEEINQYVTQIE [PRE6] | 3.1 ± 0.053 | 2.97 ± 0.053 | 3.11 ± 0.037 | 3.05 ± 0.042
27 | SEENIGSGLLKLSEIIL [SWI1] | 3.2 ± 0.074 | 3.02 ± 0.066 | 2.92 ± 0.048 | 3.37 ± 0.06

Row | Sequence | protein stability index (doa10∆) | protein stability index (pdr5∆) | protein stability index (san1∆) | protein stability index (ubr1∆)
28 | PNEFEIQLSTVNRQSPL [RGR1] | 2.19 ± 0.063 | 2.65 ± 0.057 | 2.69 ± 0.054 | 2.45 ± 0.055
29 | AAIHAKRVTIQKKDIKL [HHT1] | 2.92 ± 0.086 | 3.04 ± 0.12 | 3.14 ± 0.091 | 3.1 ± 0.075
30 | ISIKDNKLVMKSKFNKS [GAL11] | 2.51 ± 0.057 | 2.59 ± 0.064 | 3.2 ± 0.047 | 2.08 ± 0.068
31 | ALSGLYYKNFHNSVKRY [SNM1] | 1.59 ± 0.27 | – | 1.17 ± 0.17 | 1.22 ± 0.093
32 | NTNLMNGVNVQIDQLNR [GRR1] | 2.85 ± 0.052 | 3.06 ± 0.061 | 2.88 ± 0.049 | 2.99 ± 0.05
33 | YIYLSHETLARSSEEIN [RPN3] | 3.15 ± 0.26 | – | – | 3.15 ± 0.18
34 | ALFVFYSPNTLGHPDNY [COB] | 1.39 ± 0.09 | 1.36 ± 0.069 | 2.06 ± 0.11 | 1.87 ± 0.054
35 | MNKIFTIFKSGEIDFIK [YML103C/NUP188] | 2.51 ± 0.091 | 2.62 ± 0.054 | 2.41 ± 0.075 | 2.59 ± 0.06
36 | EREPVPLGILHIPICVT [RRP45] | 1.81 ± 0.077 | 1.88 ± 0.06 | 1.47 ± 0.19 | 1.95 ± 0.059
37 | STISAREIQTAVRLILP [HTB1] | 2.13 ± 0.11 | 2.31 ± 0.12 | 2.52 ± 0.087 | 2.38 ± 0.074
38 | RKVENIRTILVNIHHLL [MED7] | 1.55 ± 0.04 | 1.74 ± 0.041 | 1.5 ± 0.087 | 1.32 ± 0.033
39 | TLDDLVTKWTNQLTESA [YJL041W/NSP1] | 2.76 ± 0.1 | 3 ± 0.099 | 2.85 ± 0.076 | 3.05 ± 0.061
40 | QRIIADLSADKPTSPFI [SRB8] | 2.78 ± 0.041 | 2.81 ± 0.054 | 2.82 ± 0.043 | 2.94 ± 0.048
41 | DELMVIYISNLVRSIIA [RPN8] | 2.44 ± 0.28 | 3.22 ± 0.17 | – | 3.24 ± 0.11
42 | MNLVLNECIEERVPKTQ [SMB1] | 2.3 ± 0.23 | – | – | –
43 | DYIEFNITFSEELVSLA [YJL039C/NUP192] | – | – | 1.54 ± 0.27 | 1.61 ± 0.28
44 | IVLSKAASALDEKEKQL [SIR4] | 3.35 ± 0.1 | 3.03 ± 0.11 | 3.04 ± 0.17 | 3.57 ± 0.21
45 | TAVSFVSAAEDESLIRE [PRP28] | 2.77 ± 0.093 | 3.27 ± 0.15 | 3.04 ± 0.16 | 2.2 ± 0.15
46 | DLESSSPELKADLRPLQ [RPS7B] | 2.89 ± 0.29 | 2.97 ± 0.21 | – | 3.27 ± 0.17
47 | TSAVELGAIEQILIFAA [YJL039C/NUP192] | 2.13 ± 0.16 | 2.77 ± 0.071 | 1.77 ± 0.11 | 3.32 ± 0.13
48 | ISSLGYRSHIFATNEER [SWI3] | 2.3 ± 0.072 | 1.96 ± 0.056 | 2.34 ± 0.055 | 2.33 ± 0.045
49 | GQLISLLFEDLFKKFNN [RET1] | 3.1 ± 0.17 | 3.22 ± 0.23 | 3.34 ± 0.15 | –
50 | GNIDTKNNILGSNVLKS [RRP43] | 2.86 ± 0.039 | 2.97 ± 0.044 | 2.92 ± 0.032 | 3.041 ± 0.027
51 | SASSKEFNFTNLQAKPL [YAR002W/NUP60] | 2.43 ± 0.072 | 2.26 ± 0.068 | 2.46 ± 0.06 | 2.42 ± 0.051
52 | SDLGTVVFDSNEAPPKT [YMR153W/NUP53] | 3.17 ± 0.057 | 3.13 ± 0.051 | 2.6 ± 0.076 | 2.58 ± 0.069
53 | GSNYNPYFPGGSIAMAR [CYT1] | 2.08 ± 0.082 | 2.4 ± 0.13 | 2.59 ± 0.093 | 2.35 ± 0.048
54 | KLANFFSKKGNEPLSEI [YAR002W/NUP60] | 2.82 ± 0.095 | 3.17 ± 0.076 | 3.14 ± 0.067 | 3.13 ± 0.099
